According to the supplement of paper PMC10065799, “High-throughput profiling of sequence recognition by tyrosine kinases and SH2 domains using bacterial peptide display” (eLife, 2023):

Experiments:
AncSZ = assay: phosphorylation enrichment, bacterial display (enrichment ratio); higher = better substrate or ligand; peptides without Tyr show the background
c-Src = assay: as above
Jak2 = Jak2 (UniProt O60674); assay: as above
Fer (mouse) = assay: as above
Fyn = Fyn (UniProt P06241); assay: as above
EPHB2 = EPHB2 (UniProt P29323); assay: as above
c-Abl (mouse) = assay: as above
Fes = Fes (UniProt P07332); assay: as above
FGFR3 = FGFR3 (UniProt P22607); assay: as above
MERTK = MERTK (UniProt Q12866); assay: as above
Hck = Hck (UniProt P08631); assay: as above
EPHB1 = EPHB1 (UniProt P54762); assay: as above
FGFR1 = FGFR1 (UniProt P11362); assay: as above
c-Src SH2 = assay: SH2 binding enrichment of the phosphorylated peptide, bacterial display (enrichment ratio); higher = better substrate or ligand; peptides without Tyr show the background
Grb2 SH2 = Grb2 SH2 (UniProt P62993); assay: as above
SHP2-C SH2 = assay: as above
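For SH2 binding enrichment of the phosphorylated peptide, bacterial display in this document: peptide library displayed on the E. coli surface as eCPX fusions, selected cells deep-sequenced, score is each peptide's frequency after selection divided by its frequency in the input.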
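For phosphorylation enrichment, bacterial display in this document: 11-residue human phosphosite peptides and single-mutation variants displayed on the E. coli surface, counted by deep sequencing, each peptide's frequency after selection divided by its frequency in the unselected input library; frequency after pTyr selection over input frequency; kinase dosed for 20-30% of maximal phosphorylation in three min.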

FGFR3, sequence (P22607 whole entry, looked up): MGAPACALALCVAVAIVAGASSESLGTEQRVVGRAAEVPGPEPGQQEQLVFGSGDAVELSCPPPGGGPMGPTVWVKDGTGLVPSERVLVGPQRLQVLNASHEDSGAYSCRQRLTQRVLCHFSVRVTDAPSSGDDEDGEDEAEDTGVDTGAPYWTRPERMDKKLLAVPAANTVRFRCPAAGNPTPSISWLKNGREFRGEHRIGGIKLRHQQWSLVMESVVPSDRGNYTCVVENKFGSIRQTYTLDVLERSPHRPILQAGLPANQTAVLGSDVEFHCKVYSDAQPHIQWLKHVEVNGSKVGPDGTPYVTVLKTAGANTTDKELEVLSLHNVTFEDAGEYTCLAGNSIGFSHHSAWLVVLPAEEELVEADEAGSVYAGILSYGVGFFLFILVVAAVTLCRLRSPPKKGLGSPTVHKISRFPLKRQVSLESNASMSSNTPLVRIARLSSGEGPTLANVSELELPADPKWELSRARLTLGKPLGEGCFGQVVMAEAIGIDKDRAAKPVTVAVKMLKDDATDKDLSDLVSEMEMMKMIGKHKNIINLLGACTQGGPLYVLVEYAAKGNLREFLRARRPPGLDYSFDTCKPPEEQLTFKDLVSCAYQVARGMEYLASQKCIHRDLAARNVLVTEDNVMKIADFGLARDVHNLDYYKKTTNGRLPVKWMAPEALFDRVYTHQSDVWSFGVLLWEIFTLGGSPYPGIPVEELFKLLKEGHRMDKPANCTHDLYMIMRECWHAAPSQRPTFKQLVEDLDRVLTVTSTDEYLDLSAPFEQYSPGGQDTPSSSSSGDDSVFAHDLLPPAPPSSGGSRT
Jak2, sequence (O60674 whole entry, looked up): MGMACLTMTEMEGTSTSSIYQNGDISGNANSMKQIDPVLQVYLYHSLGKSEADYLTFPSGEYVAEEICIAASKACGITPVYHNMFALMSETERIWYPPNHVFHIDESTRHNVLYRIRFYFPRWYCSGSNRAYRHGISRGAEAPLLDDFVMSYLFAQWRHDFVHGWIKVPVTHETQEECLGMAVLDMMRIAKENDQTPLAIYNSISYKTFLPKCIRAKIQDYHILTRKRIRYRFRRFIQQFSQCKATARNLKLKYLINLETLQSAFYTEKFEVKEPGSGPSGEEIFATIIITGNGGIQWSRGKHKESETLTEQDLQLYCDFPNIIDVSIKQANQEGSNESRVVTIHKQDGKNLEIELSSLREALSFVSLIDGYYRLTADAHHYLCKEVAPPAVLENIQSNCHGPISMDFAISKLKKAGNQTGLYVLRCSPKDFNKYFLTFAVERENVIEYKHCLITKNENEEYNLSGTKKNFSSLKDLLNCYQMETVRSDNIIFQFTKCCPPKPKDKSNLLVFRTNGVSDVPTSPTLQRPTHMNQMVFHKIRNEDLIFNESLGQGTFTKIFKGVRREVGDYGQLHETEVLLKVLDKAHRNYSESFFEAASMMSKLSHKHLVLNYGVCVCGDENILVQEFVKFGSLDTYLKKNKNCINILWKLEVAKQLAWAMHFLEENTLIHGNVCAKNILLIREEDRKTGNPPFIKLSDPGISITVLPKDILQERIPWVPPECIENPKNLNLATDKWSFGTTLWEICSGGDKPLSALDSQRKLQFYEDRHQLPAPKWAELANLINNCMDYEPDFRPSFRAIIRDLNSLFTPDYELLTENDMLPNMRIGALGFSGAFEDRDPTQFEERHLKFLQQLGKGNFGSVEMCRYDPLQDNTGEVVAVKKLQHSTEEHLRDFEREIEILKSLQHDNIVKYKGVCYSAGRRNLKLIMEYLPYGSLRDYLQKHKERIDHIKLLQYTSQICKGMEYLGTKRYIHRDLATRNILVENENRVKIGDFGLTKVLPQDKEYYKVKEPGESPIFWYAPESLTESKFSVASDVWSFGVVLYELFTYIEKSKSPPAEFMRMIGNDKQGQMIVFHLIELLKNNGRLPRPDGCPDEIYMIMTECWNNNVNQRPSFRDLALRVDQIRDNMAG
Fes, sequence (P07332 whole entry, looked up): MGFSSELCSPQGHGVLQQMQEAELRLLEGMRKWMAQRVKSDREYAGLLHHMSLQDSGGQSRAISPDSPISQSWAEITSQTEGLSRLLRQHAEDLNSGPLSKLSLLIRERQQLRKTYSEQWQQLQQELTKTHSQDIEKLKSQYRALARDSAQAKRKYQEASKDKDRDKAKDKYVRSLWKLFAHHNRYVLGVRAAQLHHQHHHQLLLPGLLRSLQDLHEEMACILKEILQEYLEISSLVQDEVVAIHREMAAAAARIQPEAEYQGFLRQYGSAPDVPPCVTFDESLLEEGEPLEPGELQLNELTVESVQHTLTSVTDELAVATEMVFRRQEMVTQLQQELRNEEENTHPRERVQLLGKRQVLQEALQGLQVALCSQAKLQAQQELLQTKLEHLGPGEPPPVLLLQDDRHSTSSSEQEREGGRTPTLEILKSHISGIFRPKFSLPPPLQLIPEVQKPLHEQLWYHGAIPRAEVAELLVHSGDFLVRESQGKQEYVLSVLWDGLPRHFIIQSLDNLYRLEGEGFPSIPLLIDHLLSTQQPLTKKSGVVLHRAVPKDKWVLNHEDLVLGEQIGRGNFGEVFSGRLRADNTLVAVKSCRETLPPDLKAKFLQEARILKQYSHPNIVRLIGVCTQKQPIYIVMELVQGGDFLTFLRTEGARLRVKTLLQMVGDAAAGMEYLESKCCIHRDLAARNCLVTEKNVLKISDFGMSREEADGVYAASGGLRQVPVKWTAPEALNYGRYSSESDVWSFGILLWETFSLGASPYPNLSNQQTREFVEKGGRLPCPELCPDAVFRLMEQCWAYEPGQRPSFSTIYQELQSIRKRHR
MERTK, sequence (Q12866 whole entry, looked up): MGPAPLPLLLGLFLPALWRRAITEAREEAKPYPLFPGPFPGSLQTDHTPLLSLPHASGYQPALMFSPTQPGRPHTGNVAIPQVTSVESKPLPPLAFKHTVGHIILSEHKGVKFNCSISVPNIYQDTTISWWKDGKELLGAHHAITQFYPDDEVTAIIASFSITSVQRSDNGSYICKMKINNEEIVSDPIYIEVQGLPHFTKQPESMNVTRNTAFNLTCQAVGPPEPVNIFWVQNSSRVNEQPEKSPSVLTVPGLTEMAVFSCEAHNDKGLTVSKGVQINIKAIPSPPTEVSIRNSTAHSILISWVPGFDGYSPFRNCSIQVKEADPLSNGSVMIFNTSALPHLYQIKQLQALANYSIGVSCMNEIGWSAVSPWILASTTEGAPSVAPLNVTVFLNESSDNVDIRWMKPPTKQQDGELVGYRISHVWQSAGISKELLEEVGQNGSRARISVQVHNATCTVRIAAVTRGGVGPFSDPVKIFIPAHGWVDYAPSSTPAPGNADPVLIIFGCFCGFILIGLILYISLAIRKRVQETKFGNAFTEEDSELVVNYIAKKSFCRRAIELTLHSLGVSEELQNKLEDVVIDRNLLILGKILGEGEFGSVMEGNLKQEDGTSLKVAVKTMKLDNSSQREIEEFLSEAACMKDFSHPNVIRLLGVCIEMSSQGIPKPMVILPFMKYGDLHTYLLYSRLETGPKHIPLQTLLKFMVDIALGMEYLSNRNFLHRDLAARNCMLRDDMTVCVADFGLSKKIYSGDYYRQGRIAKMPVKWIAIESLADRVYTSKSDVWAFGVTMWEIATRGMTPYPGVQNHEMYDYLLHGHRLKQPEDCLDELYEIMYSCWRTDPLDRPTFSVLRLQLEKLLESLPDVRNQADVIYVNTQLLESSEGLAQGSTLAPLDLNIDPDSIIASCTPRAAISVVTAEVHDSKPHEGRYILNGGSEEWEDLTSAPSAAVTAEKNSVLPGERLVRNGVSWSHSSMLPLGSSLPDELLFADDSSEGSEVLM
EPHB1, sequence (P54762 whole entry, looked up): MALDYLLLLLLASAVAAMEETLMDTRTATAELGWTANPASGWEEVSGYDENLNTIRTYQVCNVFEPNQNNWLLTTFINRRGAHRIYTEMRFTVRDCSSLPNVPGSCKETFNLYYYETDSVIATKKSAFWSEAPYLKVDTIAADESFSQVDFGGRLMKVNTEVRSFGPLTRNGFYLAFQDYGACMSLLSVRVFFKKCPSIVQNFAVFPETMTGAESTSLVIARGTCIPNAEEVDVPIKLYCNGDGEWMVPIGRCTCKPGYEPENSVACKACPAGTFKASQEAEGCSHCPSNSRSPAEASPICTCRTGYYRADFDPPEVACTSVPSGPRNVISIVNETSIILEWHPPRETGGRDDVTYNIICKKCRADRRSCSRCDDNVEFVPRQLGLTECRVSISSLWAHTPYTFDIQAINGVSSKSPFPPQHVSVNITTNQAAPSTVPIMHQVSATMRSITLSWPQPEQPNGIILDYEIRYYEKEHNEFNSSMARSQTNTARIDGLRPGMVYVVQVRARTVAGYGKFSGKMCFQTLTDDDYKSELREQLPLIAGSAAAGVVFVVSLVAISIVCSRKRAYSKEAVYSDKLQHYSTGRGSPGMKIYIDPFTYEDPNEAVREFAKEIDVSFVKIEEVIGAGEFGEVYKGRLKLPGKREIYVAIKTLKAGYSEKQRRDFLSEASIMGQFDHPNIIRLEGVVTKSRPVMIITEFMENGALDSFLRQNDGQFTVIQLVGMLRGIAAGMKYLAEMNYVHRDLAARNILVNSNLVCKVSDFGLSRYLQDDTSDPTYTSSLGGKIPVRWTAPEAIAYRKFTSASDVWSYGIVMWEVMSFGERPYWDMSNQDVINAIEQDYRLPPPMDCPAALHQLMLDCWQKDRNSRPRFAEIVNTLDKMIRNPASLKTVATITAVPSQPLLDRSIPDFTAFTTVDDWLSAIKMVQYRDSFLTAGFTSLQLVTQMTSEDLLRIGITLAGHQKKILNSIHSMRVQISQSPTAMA
Grb2 SH2, sequence (P62993 whole entry, looked up): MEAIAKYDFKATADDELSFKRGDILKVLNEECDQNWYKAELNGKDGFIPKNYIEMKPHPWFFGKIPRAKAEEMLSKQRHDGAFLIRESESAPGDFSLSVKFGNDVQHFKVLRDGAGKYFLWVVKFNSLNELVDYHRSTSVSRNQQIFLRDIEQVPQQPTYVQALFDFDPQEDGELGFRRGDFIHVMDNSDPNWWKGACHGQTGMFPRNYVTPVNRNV

Sequence	phosphorylation enrichment (AncSZ)	phosphorylation enrichment (c-Src)	phosphorylation enrichment (Jak2)	phosphorylation enrichment (Fer (mouse))	phosphorylation enrichment (Fyn)	phosphorylation enrichment (EPHB2)	phosphorylation enrichment (c-Abl (mouse))	phosphorylation enrichment (Fes)	phosphorylation enrichment (FGFR3)	phosphorylation enrichment (MERTK)	phosphorylation enrichment (Hck)	phosphorylation enrichment (EPHB1)	phosphorylation enrichment (FGFR1)	SH2 binding enrichment (c-Src SH2)	SH2 binding enrichment (Grb2 SH2)	SH2 binding enrichment (SHP2-C SH2)
TDGIAYEFRVT	1.36	0.491	1.37	0.639	0.487	0.582	0.933	1.51	0.916	0.403	0.49	0.608	0.528	0.449	0.577	0.575
TDISLYPSGGT [TENM4_Y399_V396I]	0.637	0.391	0.657	0.39	0.414	0.632	0.528	0.84	0.536	0.394	0.398	0.46	0.457	0.436	0.661	0.616
TEIGQYGNGLK [MORC2_Y100_Q96E]	0.522	0.331	0.588	0.394	0.393	0.434	0.556	0.579	0.499	0.354	0.448	0.543	0.404	0.51	0.662	0.432
TENAGYFFQVS	1.11	0.384	1.21	0.414	0.435	0.546	0.89	1.08	0.774	0.397	0.442	0.482	0.714	0.333	0.61	0.654
TESALYGCTVV [KIAA1804_Y724_L729V]	1.18	4.43	1.17	5	5.73	0.833	0.888	1.43	0.802	1.83	4.37	0.783	0.517	0.336	0.685	0.657
TEVRRYVLPLN [RPE65_Y368_P363T]	0.649	0.38	0.661	0.514	0.412	0.4	0.526	0.887	0.785	0.401	0.407	0.377	0.482	0.829	0.852	0.737
TFRPPYFHRDC [HGD_Y333_N337D_YF]	0.617	0.558	0.685	0.422	0.427	0.431	0.587	0.847	2	0.424	0.454	0.432	0.496	0.93	1.18	0.741
TFVVLYDAELT [ERCC4_Y581_R576T_YF]	1.31	0.596	1.49	0.669	0.712	1.03	0.979	1.61	0.92	0.724	0.568	1.18	0.696	0.893	1.38	1.73
TFWKKYRTFWK [CCDC70_Y125]	0.702	0.664	0.934	0.409	0.46	0.308	0.723	0.8	0.555	0.446	0.371	0.472	0.403	0.517	0.843	1.18
TIAIRYSHSRR [ACOXL_Y260]	0.746	0.691	0.785	0.632	0.644	0.622	0.655	0.918	0.599	0.648	0.576	0.363	0.536	0.495	0.608	0.44
TIMTNYNPNFC [ALK_Y1092_D1091N_YF]	0.987	0.533	0.865	0.512	0.545	0.784	0.716	1.06	0.694	0.485	0.5	0.43	0.576	0.478	0.775	0.531
TISPFYRQSLF [CRYAA_Y48_YF]	0.648	0.395	0.693	0.369	0.437	0.528	0.49	0.76	0.489	0.467	0.396	0.435	0.448	0.612	0.85	0.706
TKAEKYVNKPK [PLCG1_Y991_A995P]	0.72	0.467	0.596	0.442	0.398	0.376	0.942	0.714	0.534	0.423	0.559	0.336	0.594	0.999	1.05	1.16
TKDTFYQQPMF [GBA_Y451_K452Q]	1.07	0.639	0.648	2.41	0.664	2.01	3.38	0.805	0.589	4.31	0.91	0.583	0.605	0.902	0.793	0.637
TKFRNYLIPNG [CYP2C8_Y379_K383N]	0.68	0.484	0.536	0.394	0.553	0.736	0.631	0.679	0.502	0.495	0.432	0.527	0.458	0.462	0.946	0.724
TKQLTYEEQFL [PIK3C3_Y310_D314Y_YF]	1.1	0.5	0.861	1.03	0.509	0.622	0.661	1.08	0.65	0.502	0.419	0.611	0.497	0.698	0.98	0.767
TLMNAYSSRSH [KIF11_Y231]	0.675	0.54	1.08	0.514	0.517	0.517	0.57	0.579	0.44	0.636	0.516	0.436	0.449	0.427	0.707	0.552
